The values below come from patent US20240141038A1 (SHANGHAI QILU PHARMACEUTICAL RESEARCH AND DEVELOPMENT CENTRE, published 2024).

One may read the EC50 as the midpoint of the concentration-response curve. For orientation: Kd means the concentration at which binding is half-saturated. As usually defined, the koff is the rate constant with which the complex falls apart. As a reminder, the kon is a measure of how fast the partners come together.

Experiment [1] has as its target T1, human NKp46 (full length, on cells) (human, UniProt O76036 22-304). In words: cell-based or functional assay.
For experiment [2], the target named is T1, human NKp46 (full length, on cells). Put plainly: flow cytometry on human NKp46-CHOK1 cells. On the procedure:
(§1) The stable human NKp46-CHOK1 and cynomolgus monkey NKp46-CHOK1 cell lines obtained in Example 2 were cultured, the cells were digested with 0.25% pancreatic enzyme EDTA for about 5 minutes, and the digestion was terminated with the complete medium. After centrifugation at 1,500 rpm for 5 minutes, the supernatant was discarded, the precipitated cells were resuspended with PBS containing 1% BSA and counted. The cell density was adjusted to 1E6/mL and seeded in a corning-3799 96-well culture plate at 100 μL/well. Aftering centrifuging at 1,500 rpm for 5 minutes, the supernatant was discarded and the precipitate was set aside at 4° C. The antibody solutions were prepared with PBS containing 1% BSA, wherein the antibody solution has an initial concentration was 100 nM, then diluted in 10-fold to obtain 7 gradients: 10⁻⁴ nM, 10⁻³ nM, 10⁻² nM, 10⁻¹ nM, […], and 10² nM. The prepared antibody solutions were used to resuspend the cells, 100 μL/well. The resuspended cell culture plates were incubated in a 4° C. freezer for 1 h. After centrifugation at 1500 rpm for 5 minutes, the supernatant was discarded. The precipitate was washed with 160 μL of PBS containing 1% BSA, the supernatant was discarded, and the cells were stored for later use.
(§2) The Secondary antibody (goat anti human IgG Fc PE) solution was prepared with PBS containing 1% BSA, and diluted 1:200. The cells were resuspended with the prepared secondary antibody solution, 100 μL/well, incubated in a 4° C. freezer for 0.5 h. After centrifugation at 1,500 rpm for 5 minutes, the supernatant was discarded, the precipitated cells were washed with 160 μL of PBS containing 1% BSA, the supernatant was discarded, the cells were resuspended with 100 μL of PBS containing 1% BSA, and filtered in 300-mesh gauze. The mean fluorescence intensity of antibody binding to cells was then analyzed on a flow cytometer. The FCS file was exported from the flow cytometer, the mean fluorescence intensity (hereinafter referred to as MFI) of PE channel was analyzed with Flowjo software, and the mean fluorescence intensity obtained was introduced into the Graphpad to analyze the half binding concentration (hereinafter referred to as EC₅₀) and the top mean fluorescence intensity (Top MFI) of the antibody and the cell.

Experiment [3] concerns the target T2, cynomolgus monkey NKp46 (full length, on cells) (cynomolgus monkey, UniProt Q95JB9 22-306).
T2 construct: also called cynomolgus monkey NKp46-CHOK1; cynomolgus NKp46-CHOK1
In words: flow cytometry on cynomolgus monkey NKp46-CHOK1 cells. On the procedure:
as §1, §2
Background: Flow cytometry measures light scatter and fluorescence of single cells or particles in a stream.

Experiment [4] concerns the target T3, Human NKp46 antigen for immunization, screening, and testing (Kactus, NKP-HM146) (human, UniProt O76036 22-255).
T3 construct: Bought protein; also called human NKp46 antigen protein; human NKp46 protein
Put plainly: SPR (Biacore 8K), antibody captured on anti-human Fc, NKp46 as analyte, 1:1 fit. The procedure: Human NKp46 was diluted in two-fold to a serial concentration (400 nM-3.125 nM), then combined for 90 s at a flow rate of 50 μL/min, and dissociated for 500 s.
(§3) At the end of each round of experiments, 3 M MgCl₂ solution was used to rinse at a flow rate of 30 μL/min for 30 s, and the captured antibody was removed along with the antigen to complete the regeneration of the chip. The raw data were analyzed using Biacore Insight Evaluation Software (version 3.0.12.15655) software and (1:1) Langmuir model was fit to the data. Compared with the anti-NKp46 humanized antibody and the corresponding chimeric antibody, the affinity to the human NKp46 antigen protein is mostly maintained.
A general note: SPR reads the build-up and loss of mass on a sensor chip optically.

Experiment [5] concerns the target T4, Cynomolgus monkey NKp46 for immunization, screening, and testing (Kactus, NKP-CM146) (cynomolgus monkey, UniProt Q95JB9 22-254).
T4 construct: Bought protein; also called monkey NKp46 antigen protein; cynomolgus monkey NKp46 antigen
The description is as above. On the procedure: Cynomolgus monkey NKp46 was diluted in two-fold to a serial concentration (400 nM-3.125 nM), combined for 90 s at a flow rate of 50 μL/min and dissociated for 500 s.
as §3

T2 sequence (Q95JB9 22-306): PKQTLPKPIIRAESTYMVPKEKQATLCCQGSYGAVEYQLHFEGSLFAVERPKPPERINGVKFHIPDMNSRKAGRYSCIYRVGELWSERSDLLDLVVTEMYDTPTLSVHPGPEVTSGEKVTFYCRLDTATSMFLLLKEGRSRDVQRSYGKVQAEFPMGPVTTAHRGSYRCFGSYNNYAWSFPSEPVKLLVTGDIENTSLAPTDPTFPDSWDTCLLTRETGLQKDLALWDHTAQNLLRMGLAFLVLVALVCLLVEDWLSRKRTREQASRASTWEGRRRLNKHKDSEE
T3 sequence (O76036 other isoform, or with tags, fused parts or gaps limits assumed): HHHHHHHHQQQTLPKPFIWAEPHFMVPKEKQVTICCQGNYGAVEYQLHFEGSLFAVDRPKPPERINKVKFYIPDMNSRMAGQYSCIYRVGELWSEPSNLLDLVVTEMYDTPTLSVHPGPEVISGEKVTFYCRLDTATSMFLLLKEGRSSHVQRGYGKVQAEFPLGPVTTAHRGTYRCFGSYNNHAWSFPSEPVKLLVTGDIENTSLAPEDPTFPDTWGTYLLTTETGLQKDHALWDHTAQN
T1 sequence (O76036 22-304 Q82K): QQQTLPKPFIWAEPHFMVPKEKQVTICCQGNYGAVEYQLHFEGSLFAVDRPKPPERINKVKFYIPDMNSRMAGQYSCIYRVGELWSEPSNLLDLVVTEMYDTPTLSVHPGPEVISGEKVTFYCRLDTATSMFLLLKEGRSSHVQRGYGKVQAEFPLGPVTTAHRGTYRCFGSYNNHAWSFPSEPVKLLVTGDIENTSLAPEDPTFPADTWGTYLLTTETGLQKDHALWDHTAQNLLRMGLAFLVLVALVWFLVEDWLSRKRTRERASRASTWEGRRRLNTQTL
T4 sequence (Q95JB9 other isoform, or with tags, fused parts or gaps limits assumed): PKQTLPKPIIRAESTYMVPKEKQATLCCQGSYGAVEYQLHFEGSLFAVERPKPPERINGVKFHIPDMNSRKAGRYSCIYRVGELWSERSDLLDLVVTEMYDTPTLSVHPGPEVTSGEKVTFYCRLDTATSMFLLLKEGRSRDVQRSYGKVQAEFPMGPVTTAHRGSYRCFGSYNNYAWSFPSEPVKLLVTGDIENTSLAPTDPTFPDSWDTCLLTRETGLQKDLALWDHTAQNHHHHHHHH

B1: H4-PA31 humanized antibody (antibody, human IgG1, V domains shown)
VH: EVQLVESGGGLVQPGGSLRLSCAVSGRTFSRLPMGWFRQAPGKDREFVAAISWSSSTTYYADSVKGRFTISRDNSKNTAYLQMNSLRAEDTAVYYCAAVGGSLDYSATVVYTAARAYADWGQGTLVTVSS
notes: not shown: constant region of human IgG1
For B1, in experiment [1], the “EC50 of NK cell activation (CD107a-positive NK cells, plate-coated antibody)” value (shortened to “EC50 of NK cell activation”) came out at 0.38 nM and the “Top mean fluorescence intensity (Top MFI), NK cell activation (CD107a)” value (“Top mean fluorescence intensity” below) was determined as 34.1. In addition, in experiment [2], the EC50 turned out to be 0.162 nM and the “Top MFI” value is 5950. In experiment [3], a half-maximal effect (EC50) was put at 1.3 nM and the “Top MFI” value is 3340. In experiment [4], the Kd was 5.89 nM, the koff amounted to 0.00103 s⁻¹ and the kon amounted to 175000 M⁻¹ s⁻¹.

B2: H4-PA45 humanized antibody (antibody, V domains shown)
VH: EVQLVESGGGLVQPGGSLRLSCAASGRTFSRLPMAWFRQAPGKDREFVAAISWSGGSTYYADSMKGRFTISRDNSKNTAYLQMNSLRAEDTAVYYCAAVGDSAPYSATIVYTDARAYAYWGQGTLVTVSS
notes: as for B1
Regarding B2, in experiment [1], the “EC50 of NK cell activation” value was found to be 0.4 nM and the “Top mean fluorescence intensity” value amounted to 37.6. Also, in experiment [2], the response was half-maximal at 0.205 nM (EC50) and the “Top MFI” value stood at 5760. In experiment [3], a half-maximal effect (EC50) was put at 1.53 nM and the “Top MFI” value was found to be 3400. Moreover, in experiment [4], the Kd came out at 21.9 nM, the off-rate constant (koff) came out at 0.00204 s⁻¹ and the kon was found to be 93000 M⁻¹ s⁻¹.

B3: H2-PA27 humanized antibody (antibody, human IgG1, V domains shown)
VH: QVQLVESGGGVVQPGRSLRLSCAASGRTESWYRMGWFRQAPGKGLEVVARISGDTNIKYYAGSVKGRFTISRDNSKNTLYLQMSSLRAEDTAVYYCAADRTGATWDYWGQGTLVTVSS
notes: as for B1
Turning to B3, in experiment [1], the “EC50 of NK cell activation” value is greater than 20 nM and the “Top mean fluorescence intensity” value is 14.1. For the same molecule, in experiment [2], the concentration giving a half-maximal response (EC50) came to 0.153 nM and the “Top MFI” value came to 6940. Moreover, in experiment [3], the EC50 worked out at 0.069 nM and the “Top MFI” value came to 3800. In experiment [4], this molecule registered a dissociation constant Kd of 22.1 nM, a dissociation rate constant (koff) of 0.00216 s⁻¹ and a kon of 97700 M⁻¹ s⁻¹. In experiment [5], this molecule returned a Kd of 23.4 nM, an off-rate (koff) of 0.0059 s⁻¹ and a kon of 252000 M⁻¹ s⁻¹.

B4: H4-PA27 humanized antibody (antibody, human IgG1, V domains shown)
VH: DVQLVESGGGVVQPGRSLRLSCAASGRTESWYRMGWFRQAPGKGREVVARISGDTNIKYYAGSVKGRFTISRDNSKNTLYLQMSSLRAEDTAVYYCAADRTGATWDYWGQGTLVTVSS
notes: as for B1
As for B4, in experiment [1], the “EC50 of NK cell activation” value amounted to 10.7 nM and the “Top mean fluorescence intensity” value amounted to 18.1. Also, in experiment [2], the concentration giving a half-maximal response (EC50) amounted to 0.145 nM and the “Top MFI” value is 6650. Moreover, in experiment [3], the EC50 came to 0.074 nM and the “Top MFI” value stood at 3880. Besides, in experiment [4], the equilibrium dissociation constant (Kd) is 23.7 nM, the koff turned out to be 0.00266 s⁻¹ and the association rate constant (kon) turned out to be 112000 M⁻¹ s⁻¹.

B5: H3-PA27 humanized antibody (antibody, human IgG1, V domains shown)
VH: QVQLVESGGGVVQPGRSLRLSCAASGRTESWYRMGWFRQAPGKGREVVARISGDTNIKYYAGSVKGRFTISRDNSKNTLYLQMSSLRAEDTAVYYCAADRTGATWDYWGQGTLVTVSS
notes: as for B1
B5: in experiment [1], the “EC50 of NK cell activation” value worked out at 7.39 nM and the “Top mean fluorescence intensity” value came to 14.4. Further, in experiment [2], the concentration for a half-maximal effect (EC50) was determined as 0.153 nM and the “Top MFI” value came to 6820. Besides, in experiment [3], the EC50 is 0.072 nM and the “Top MFI” value was determined as 4060.

B6: H1-PC11 humanized antibody (antibody, human IgG1, V domains shown)
VH: EVQLVESGGGLVQPGGSLRLSCAASPYSANSFSMAWFRQAPGKGLEGVACIQAESGSTNVAPSVKGRFTISQDNSKNTLYLQMNSLRAEDTAVYYCAAFKRNVGGCELRPEHWRFWGQGTLVTVSS
notes: as for B1
With B6, in experiment [1], the “EC50 of NK cell activation” value was found to be 0.85 nM and the “Top mean fluorescence intensity” value came to 21. In addition, in experiment [2], the concentration giving a half-maximal response (EC50) stood at 0.389 nM and the “Top MFI” value was 6710. Moreover, in experiment [3], the EC50 is 0.345 nM and the “Top MFI” value amounted to 3260. In experiment [4], this molecule displayed an equilibrium dissociation constant (Kd) of 6.05 nM, an off-rate constant (koff) of 0.000307 s⁻¹ and a kon of 50800 M⁻¹ s⁻¹. In experiment [5], the dissociation constant Kd was found to be 115 nM, the koff turned out to be 0.00589 s⁻¹ and the association rate constant (kon) was determined as 51300 M⁻¹ s⁻¹.

B7: H2-PC11 humanized antibody (antibody, human IgG1, V domains shown)
VH: EVQLVESGGGLVQPGGSLRLSCAPSPYSANSFSMAWFRQAPGKGLEGIACIQAESGSTNVAPSVKGRFTISQDNSKNTLYLQMNSLRAEDTAVYYCAAFKRNVGGCELRPEHWRFWGQGTLVTVSS
notes: as for B1
As for B7, in experiment [1], the “EC50 of NK cell activation” value turned out to be 0.87 nM and the “Top mean fluorescence intensity” value was found to be 18.8. In experiment [2], the midpoint of the response, the EC50, lay at 0.363 nM and the “Top MFI” value was 6940. In addition, in experiment [3], the EC50 stood at 0.301 nM and the “Top MFI” value came out at 3540. In experiment [4], this molecule came in with a Kd of 2.05 nM, an off-rate (koff) of 0.000126 s⁻¹ and a kon of 61300 M⁻¹ s⁻¹.

B8: H3-PC11 humanized antibody (antibody, human IgG1, V domains shown)
VH: EVQLVESGGGLVQPGGSLRLSCAASPYSANSFSMAWFRQAPGKGREGVACIQAESGSTNVAPSVKGRFTISQDNSKNTLYLQMNSLRAEDTAVYYCAAFKRNVGGCELRPEHWRFWGQGTLVTVSS
notes: as for B1
As for B8, in experiment [1], the “EC50 of NK cell activation” value was 1.21 nM and the “Top mean fluorescence intensity” value was 19.6. Moreover, in experiment [2], the EC50 came out at 0.328 nM and the “Top MFI” value was found to be 6830. Moreover, in experiment [3], the EC50 was determined as 0.297 nM and the “Top MFI” value came to 3280. Besides, in experiment [4], the equilibrium dissociation constant (Kd) worked out at 1.14 nM, the koff is 7.75e-05 s⁻¹ and the kon was 67800 M⁻¹ s⁻¹.

B9: H3-PA45 humanized antibody (antibody, V domains shown)
VH: EVQLVESGGGLVQPGGSLRLSCAASGRTFSRLPMAWFRQAPGKGREFVAAISWSGGSTYYADSMKGRFTISRDNSKNTAYLQMNSLRAEDTAVYYCAAVGDSAPYSATIVYTDARAYAYWGQGTLVTVSS
notes: as for B1
For the molecule B9, in experiment [1], the “EC50 of NK cell activation” value worked out at 0.58 nM and the “Top mean fluorescence intensity” value was 34. In experiment [2], the EC50 was found to be 0.188 nM and the “Top MFI” value is 5720. In addition, in experiment [3], the response was half-maximal at 1.52 nM (EC50) and the “Top MFI” value is 3330.

B10: H3-PA31 humanized antibody (antibody, human IgG1, V domains shown)
VH: EVQLVESGGGLVQPGGSLRLSCAVSGRTFSRLPMGWFRQAPGKGREFVAAISWSSSTTYYADSVKGRFTISRDNSKNTAYLQMNSLRAEDTAVYYCAAVGGSLDYSATVVYTAARAYADWGQGTLVTVSS
notes: as for B1
B10: in experiment [1], the “EC50 of NK cell activation” value came to 0.75 nM and the “Top mean fluorescence intensity” value is 31.6. For the same molecule, in experiment [2], the EC50 is 0.148 nM and the “Top MFI” value turned out to be 5980. Further, in experiment [3], the midpoint of the response, the EC50, lay at 1.16 nM and the “Top MFI” value worked out at 3210.

B11: H1-PA45 humanized antibody (antibody, human IgG1, V domains shown)
VH: EVQLVESGGGLVQPGGSLRLSCAASGRTFSRLPMAWVRQAPGKGLEWVSAISWSGGSTYYADSMKGRFTISRDNSKNTLYLQMNSLRAEDTAVYYCAAVGDSAPYSATIVYTDARAYAYWGQGTLVTVSS
notes: also called hPA45; not shown: constant region of human IgG1
For B11, in experiment [1], the “EC50 of NK cell activation” value amounted to 7.39 nM and the “Top mean fluorescence intensity” value stood at 30.8. Further, in experiment [2], the EC50 came out at 0.543 nM and the “Top MFI” value was 5090. In experiment [3], the EC50 stood at 11.1 nM and the “Top MFI” value amounted to 3120.
